The test addresses T1, Soluble U20 extracellular domain (sU20) of HHV-6B (HHV-6B, nine N-linked glycosylation sites with high mannose glycans; after EndoH a single GlcNAc at each site).
T1 construct: HHV-6B U20 glycoprotein, extracellular domain; Dimer in solution when alone (SEC-MALS, SEC-SAXS); Used glyco-intact or EndoH-treated, as told for each assay; also called soluble recombinant U20; source: stably transduced HEK293 GnTI cells, purified from supernatant (Nickel-NTA, cation exchange, SEC); in some cases treated with EndoH; not shown: 6xHIS, C-terminal, kept
Put plainly: SPR; Biacore 3000; biotinylated ULBP1-Fc (1000-2500 RU) on a Neutravidin coated CM5 chip; U20 injected at 0.125-32 μM; CD200 receptor Fc flow cell subtracted; equilibrium fit, one site specific binding, apparent; 20°C. The following applies: both partners purified. On the technique in general: In SPR one partner is held on a chip, and binding of the other changes the refractive index at the surface.

Among the data in publication PMC11215065, “The HHV-6B U20 glycoprotein binds ULBP1, masking it from recognition by NKG2D and interfering with natural killer cell activation” (Frontiers in Immunology, 2024) are Kd values, retold here.

B1: ULBP1-Fc (Fc fusion)
chain: GWVDTHCLCYDFIITPKSRPEPQWCEVQGLVDERPFLHYDCVNHKAKAFASLGKKVNVTKTWEEQTETLRDVVDFLKGQLLDIQVENLIPIEPLTLQARMSCEHEAHGHGRGSWQFLFNGQKFLLFDSNNRKWTALHPGAKKMTEKWEKNRDVTMFFQKISLGDCKMWLEEFLMYWEQMLDPTKPPSLAPG
modifications: biotin on the BirA recognition sequence (for SPR)
Regarding B1, the Kd is roughly 230 nM.
